Laboratory results: US20210403595 (published 2021)
Where a chain is given by its changes, count along the chain named. Where two headings read alike, the source gives them in different places. One block for each binder: values may come before it.

Assays:
[1] = target: human CD3 epsilon/delta heterodimer, Fc-tagged (human); test: SPR, 25C antigen-capture
[2] = target: human CD3 on Jurkat cells (human); test: FACS
[3] = target: human CD3 epsilon/delta heterodimer, Fc-tagged (human); test: SPR, 25C antibody-capture
[4] = target: T1, cynomolgus CD3 on T cells (cynomolgus monkey); test: FACS
T1 chain: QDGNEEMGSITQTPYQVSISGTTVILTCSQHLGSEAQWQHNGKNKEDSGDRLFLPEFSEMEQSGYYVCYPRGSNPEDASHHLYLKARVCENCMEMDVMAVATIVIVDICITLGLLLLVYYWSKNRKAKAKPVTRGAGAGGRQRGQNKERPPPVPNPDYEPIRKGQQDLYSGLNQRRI

[5] = target: human CD3 on Jurkat cells (human); test: FACS; remark: listed apart in the source
[6] = target: human CD3 epsilon/delta heterodimer, Fc-tagged (human); test: SPR, 37C
[7] = target: T1, cynomolgus CD3 on T cells; test: FACS
[8] = target: human CD3 epsilon/delta heterodimer, Fc-tagged (human); test: SPR, 37C; remark: listed apart in the source
[9] = target: human CD3 epsilon/delta heterodimer, Fc-tagged (human); test: SPR, 25C antibody-capture; remark: listed apart in the source
[10] = target: human CD3 on Jurkat cells (human); test: FACS; remark: listed apart in the source

Sequence of human CD3 epsilon/delta heterodimer, Fc-tagged (human) (chain, as listed by the source mutant, chain 1 of 2): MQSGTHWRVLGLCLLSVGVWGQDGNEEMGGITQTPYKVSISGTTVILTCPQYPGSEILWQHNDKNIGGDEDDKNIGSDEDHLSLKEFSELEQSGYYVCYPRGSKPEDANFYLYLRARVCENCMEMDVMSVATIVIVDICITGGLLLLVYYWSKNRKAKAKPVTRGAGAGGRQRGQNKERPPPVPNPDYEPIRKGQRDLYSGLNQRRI
Sequence of human CD3 epsilon/delta heterodimer, Fc-tagged (human) (chain, as listed by the source mutant, chain 2 of 2): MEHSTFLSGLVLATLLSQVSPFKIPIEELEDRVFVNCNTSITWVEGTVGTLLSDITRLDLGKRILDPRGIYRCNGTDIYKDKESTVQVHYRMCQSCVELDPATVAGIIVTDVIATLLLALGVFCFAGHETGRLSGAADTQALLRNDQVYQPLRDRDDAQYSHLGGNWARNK
Sequence of human CD3 on Jurkat cells (human) (chain, as listed by the source, chain 1 of 2): as the sequence (chain, as listed by the source mutant, chain 1 of 2) above
Sequence of human CD3 on Jurkat cells (human) (chain, as listed by the source, chain 2 of 2): as the sequence (chain, as listed by the source mutant, chain 2 of 2) above

- Kd [1]: 53.4 nM
- EC50 [2]: 2.1 nM
- Kd [3]: 5160 nM
B1: H1H5761P (antibody, V domains shown)
VH: QVQLVESGGGVVQPGRSLRLSCAASGFTFSSYGMHWVRQAPGKGLEWVAVISYDGSNKYYADSVKGRFTISRDYSKNTLYLQMNSLRAEDTAVFYCAKGAMVRGVPYNYYYGMDVWGQGTTVTVSS
VL: DIQMTQSPSSLSASVGDRVTITCRASQGIRNDLGWFQQKPGKAPKRLIYAASSLQSGVPSRFSGSGSGTEFTLTISSLQPEDFATYYCLQHNSYPYTFGQGTKLEIK

- EC50 [2]: 1.9 nM
B2: H1H5758B (antibody, V domains shown)
VH: B1 VH with Q1E, A49T, S52L, Y53H, K58R, Y74N, S85I, F94Y, A97T, Y109H
VL: DIVMTQSPSSLSASVGDRVTITCRASQGIRNDLGWYQQKPGKAPKRLIYAASNLQSGVPSRFSGSGSGTEFTLTISSLQPEDFATYYCLQHNSYPYTFGQGTKLEIKR

- Kd [1]: 21 nM
- EC50 [2]: 0.88 nM
B3: H1H5764P (antibody, V domains shown)
VH: B1 VH with S30R, Y32F, S56N, N57Y, Y74N, F94H, Y109F
VL: B1 VL with G28V, F36Y, V58I

- Kd [1]: 3.42 nM
- EC50 [2]: 2.12 nM
- Kd [3]: 129 nM
B4: H1H5751P (antibody)
chain 1: EVQLVESGGDLVQPGRSLRLSCAASGFTFDDYTMHWVRQAPGKGLEWVSIISWNGNTIDYADSVKGRFTISRDNAKNSLYLQMNSLRAEDTALYYCAKDKSGYGHFYYYVLDVWGQGTTVTVSS
chain 2: DIQMTQSPSSLSASVGDRVTITCRASQSINNYLNWYQQKPGKAPKLLIYAASSLQSGVPSRFSGSGSGTDFTLTISSLQPEDFATYYSQQSYSFPWTFGQGTKVEIK

- EC50 [4]: 3350 nM
- EC50 [5]: 200 nM
- Kd [6]: 65.2 nM
B5: BSPSMA/CD3-1700 CD3 arm (antibody, V domains shown)
VH: EVQLVESGGGLVQPGRSLRLSCAASGFTFDDYSMHWVRQAPGKGLEWVSGISWNSGSKGYADSVKGRFTISRDNAKNSLYLQMNSLRAEDTALYYCAKYGSGYGKFYYYGMDVWGQGTTVTVSS
VL: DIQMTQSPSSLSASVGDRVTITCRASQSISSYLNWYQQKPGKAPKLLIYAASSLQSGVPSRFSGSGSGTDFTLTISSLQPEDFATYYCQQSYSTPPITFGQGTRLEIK

- EC50 [4]: 890 nM
- EC50 [5]: 18.3 nM
- Kd [6]: 11.1 nM
B6: BSPSMA/CD3-1100 CD3 arm (antibody, V domains shown)
VH: B5 VH with Y108H
VL: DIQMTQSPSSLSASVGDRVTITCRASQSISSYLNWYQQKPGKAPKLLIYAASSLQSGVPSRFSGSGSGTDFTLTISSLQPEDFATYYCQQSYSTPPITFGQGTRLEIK

- binding result [7]: no binding
- EC50 [5]: 277 nM
- Kd [6]: 185 nM
B7: BSPSMA/CD3-1000 CD3 arm (antibody, V domains shown)
VH: B5 VH with M111L
VL: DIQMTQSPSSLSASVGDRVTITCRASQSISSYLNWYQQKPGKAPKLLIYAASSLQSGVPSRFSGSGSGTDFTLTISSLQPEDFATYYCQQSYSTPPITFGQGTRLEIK

- binding result [7]: no binding
- EC50 [5]: 56.8 nM
- Kd [6]: 37.8 nM
B8: BSPSMA/CD3-1600 CD3 arm (antibody, V domains shown)
VH: B5 VH with Y99D, Y108H
VL: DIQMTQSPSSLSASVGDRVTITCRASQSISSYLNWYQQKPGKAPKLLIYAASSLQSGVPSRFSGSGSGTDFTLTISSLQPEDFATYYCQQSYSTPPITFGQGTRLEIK

- EC50 [4]: 6140 nM
- EC50 [5]: 210 nM
- Kd [6]: 334 nM
B9: BSPSMA/CD3-005 CD3 arm (antibody, V domains shown)
VH: B5 VH with K58I
VL: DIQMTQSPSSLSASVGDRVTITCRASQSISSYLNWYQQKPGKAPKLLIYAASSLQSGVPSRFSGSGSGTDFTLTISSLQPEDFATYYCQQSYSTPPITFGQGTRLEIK

- EC50 [4]: 14.2 nM
- Kd [6]: 5.78 nM
B10: BSPSMA/CD3-003 CD3 arm (antibody, V domains shown)
VH: B5 VH with Y108H, M111L
VL: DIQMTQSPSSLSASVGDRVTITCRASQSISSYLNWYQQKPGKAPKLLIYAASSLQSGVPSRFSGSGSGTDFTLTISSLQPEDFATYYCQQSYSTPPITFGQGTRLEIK

- binding result [7]: no binding
- EC50 [5]: ~1000 nM
- binding result [8]: no binding
B11: BSPSMA/CD3-004 CD3 arm (antibody, V domains shown)
VH: B5 VH with K58I, Y99D
VL: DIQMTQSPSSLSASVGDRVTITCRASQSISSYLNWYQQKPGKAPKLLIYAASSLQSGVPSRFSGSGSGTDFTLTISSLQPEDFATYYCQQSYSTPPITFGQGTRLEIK

- EC50 [4]: 170 nM
- EC50 [5]: 31.9 nM
- Kd [6]: 53.3 nM
B12: BSPSMA/CD3-1400 CD3 arm (antibody, V domains shown)
VH: B5 VH with K58I, Y108H
VL: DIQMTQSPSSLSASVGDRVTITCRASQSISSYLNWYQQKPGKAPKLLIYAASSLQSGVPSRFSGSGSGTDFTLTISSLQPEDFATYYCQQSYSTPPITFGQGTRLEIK

- binding result [7]: no binding
- EC50 [5]: 47.2 nM
- Kd [6]: 64.2 nM
B13: BSPSMA/CD3-1200 CD3 arm (antibody, V domains shown)
VH: B5 VH with K58I, Y99D, Y108H, M111L
VL: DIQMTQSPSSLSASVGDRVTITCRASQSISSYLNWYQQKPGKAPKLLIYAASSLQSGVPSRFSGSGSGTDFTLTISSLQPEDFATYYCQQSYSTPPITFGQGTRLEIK

- binding result [7]: no binding
- EC50 [5]: 93 nM
- Kd [6]: 82.9 nM
B14: BSPSMA/CD3-1500 CD3 arm (antibody, V domains shown)
VH: B5 VH with Y99D, M111L
VL: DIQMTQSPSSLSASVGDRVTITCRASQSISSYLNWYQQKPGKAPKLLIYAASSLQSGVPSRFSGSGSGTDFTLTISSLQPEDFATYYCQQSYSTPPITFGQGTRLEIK

- EC50 [4]: 2170 nM
- EC50 [5]: 102 nM
- Kd [6]: 122 nM
B15: BSPSMA/CD3-1300 CD3 arm (antibody, V domains shown)
VH: B5 VH with K58I, M111L
VL: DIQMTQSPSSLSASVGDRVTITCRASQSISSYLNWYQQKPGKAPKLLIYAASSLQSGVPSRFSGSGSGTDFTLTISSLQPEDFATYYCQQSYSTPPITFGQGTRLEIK

- EC50 [4]: 19.6 nM
- Kd [6]: 19.4 nM
B16: BSPSMA/CD3-800 CD3 arm (antibody, V domains shown)
VH: B5 VH with K58I, Y108H, M111L
VL: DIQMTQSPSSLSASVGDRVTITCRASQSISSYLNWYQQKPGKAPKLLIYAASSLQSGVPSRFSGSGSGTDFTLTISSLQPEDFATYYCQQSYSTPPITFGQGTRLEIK

- binding result [7]: no binding
- EC50 [5]: 126 nM
- binding result [8]: no binding
B17: BSPSMA/CD3-1800 CD3 arm (antibody, V domains shown)
VH: B5 VH with K58I, Y99D, M111L
VL: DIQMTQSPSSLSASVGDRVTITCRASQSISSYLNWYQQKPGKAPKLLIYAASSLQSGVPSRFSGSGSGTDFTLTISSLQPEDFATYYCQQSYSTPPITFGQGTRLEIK

- Kd [1]: 3.52 nM
- EC50 [2]: 0.571 nM
- Kd [3]: 224 nM
B18: H1H5777P (antibody, V domains shown)
VH: EVQLVESGGGLVQPGRSLRLSCAASGFTFDDYAMHWVRQAPGKGLEWVSGISWNSGSRDYADSVKGRFTISRDNARNSLFLQMNSLSTEDTALYYCAKDKSGYGSYYYGMDVWGQGTTVTVSS
VL: EIVLTQSPGTLSLSPGDRATLSCRASQSIRSIYLAWYQQKPGQAPRLLIHGASTRATGIPDRFSGSGSGTDFTLTISRLEPEDFAVYYCQQRVSSPYTFGQGTKLEIK

- Kd [1]: 4.41 nM
- EC50 [2]: 4.1 nM
- Kd [3]: 121 nM
B19: H1H5769P (antibody, V domains shown)
VH: B18 VH with A33T, A40V, V48I, R58M, L86V, S87R, Y106F
VL: B18 VL with I29V, R30S, V93A, S94H

- Kd [1]: 2.32 nM
- EC50 [2]: 9.82 nM
- Kd [3]: 60.5 nM
B20: H1H5796B (antibody, V domains shown)
VH: EVQLVESGAEVKKPGASVKVSCKTSGYTFTGYYMHWIRQAPGQGLEWMGWINPKSGGTNYAQKFQGRVTMTRDTSISTAYMELSRLRSDDMAVYYCARMGDGAVFDFWGQGTLVTVSS
VL: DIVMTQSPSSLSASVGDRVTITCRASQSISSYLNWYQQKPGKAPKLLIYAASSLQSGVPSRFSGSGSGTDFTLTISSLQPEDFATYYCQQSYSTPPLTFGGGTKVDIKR

- EC50 [2]: 1.1 nM
B21: H1H5786B (antibody, V domains shown)
VH: B20 VH with E1Q
VL: AIQMTQSPSSLSASVGDRVTITCRASQRISSFLNWYQQKPGKAPKLLIYTASNLQNGVPSRFSGSGSGTDFTLTISSLQPEDFATYYCQQSYRTPLTFGGGTKVEIKR

- Kd [9]: 20 nM
B22: H2M2704N (antibody, V domains shown)
VH: QVQLVESGGGVVQPGRSLRLSCGASGFTFRSYGMHWVRQTPGRGLEWVAMIYYDGNNKYYADSVRGRFTVSRDNSKNTLYLQMSSLRAEDTALYFCARGPGYNWLDPWGQGTLVTVSS
VL: EIVMTQSPATLSVSPGERATLSCRASQSISRNLAWYQXKPGQAPRLLIYGASTRATGIPARFSGSGSGTEFTLTISSLQSEDFAVYYCQQYNNRPLTFGGGTEVEIK
modifications: not fully specified; listing feature

- EC50 [10]: 0.71 nM
B23: H2M2710N (antibody, V domains shown)
VH: B22 VH with G23A, Y32F, T40A, Y53F, N56K, V70I, Q82E, L93V
VL: B22 VL with I29V, X38Q, I58V, Y86F, Y87H

- EC50 [10]: 2.3 nM
B24: H1M3549N (antibody, V domains shown)
VH: EVQLVESGGGLVQPGRSLRLSCVASGFPFADYTMHWVRQAPGKGLEWVSDISWNSGSIGYADSVKGRFTISRDNAKNSLYLQMNSLRTEDTALYYCAKDMSGYAHYFYYGMDVWGQGTTVTVSS
VL: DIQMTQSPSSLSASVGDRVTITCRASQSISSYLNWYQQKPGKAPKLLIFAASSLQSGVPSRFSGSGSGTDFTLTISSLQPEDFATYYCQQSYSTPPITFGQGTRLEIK

- Kd [9]: 30 nM
B25: H2M3543N (antibody, V domains shown)
VH: B24 VH with V23A, P28T, A30D, I70V, T88G, F107G
VL: DIQMTQSPSSLSASVGDRVTITCRASQSIRNYLNWYQQKPGKVPKLLIYAASSLQSGVPSRFSGSGSGTDFTLTISSLQPEDFATYYCQQSYSNPPITFGQGTRLEIK

- EC50 [10]: 3.7 nM
B26: H2M3541N (antibody, V domains shown)
VH: B24 VH with Q13R, V23A, P28T, A30D, S57T, T88P, F107Y
VL: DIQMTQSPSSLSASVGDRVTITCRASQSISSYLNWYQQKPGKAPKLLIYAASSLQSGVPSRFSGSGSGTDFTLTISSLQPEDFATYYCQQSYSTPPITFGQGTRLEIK
